# Tested on: MS2 coat protein
# Test: apparent KD of MS2 coat protein; designed switch direction (-1 OFF switch, 1 ON switch): -1; higher = weaker reporter binding
# Outline: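 Normalised cluster fluorescence was curve-fitted, and each design's median over clusters is its apparent KD. Before this, SNAP-549-labelled MS2 coat protein was titrated from 0.7 or 1.5 nM, doubling to 3 µM, over RNA switches transcribed on Illumina chips by stalled E. coli RNA polymerase. Titrations had no input, 200 uM small-molecule ligand, or an oligonucleotide input, and steps lasted 0.8–1.5 h (lowest) to 10–20 min (highest).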
# [1] = input ligand: microRNA oligo, concentration not stated
# [2] = Eterna round: R95, input ligand: microRNA oligo, concentration not stated
# [3] = Eterna round: R95, input ligand: FMN 200 uM
# [4] = Eterna round: R95, input ligand: none
Sequence,apparent KD of MS2 coat protein (input ligand: FMN 200 uM) [nM],apparent KD of MS2 coat protein (input ligand: none) [nM],further results
"AUCCCUUGAGUAAGGAUAUGGCCAGGGAGGUCUGGCCAGAAGGUACAUGAGGAUCACCCAUGUAGGUUGUCGCA [Eternabot (L2) Solution 44] (Eterna round: R97, puzzle: Brourd's mod of Exclusion 4)",56,20.6,–
"CCCAGUUAGUGAGGAUAUCCUACAUGAGGAUCACCCAUGUAAUAAAUGAGGAUUUCGGGUGUCUAGGAGAAGGCACGGAUAGGC [Ostracism 24 - Jieux - Exclusion NG 2] (Eterna round: R96, puzzle: Exclusion NG 2)",79.3,44.8,apparent KD of MS2 coat protein [1]: 36 nM
GCUGGGUCAGGAUAUACAAGAUCGAAAGAUCUGUGAAACGAACAUGAGGAUCACCCAUGUAGAAGGGACUGGGC [ChP 11-04-2015 #9] (puzzle: Exclusion 2),–,–,apparent KD of MS2 coat protein [2]: 16.6 nM
"GCGGAGUCAGGAUAUUGAAUUUAACGUACCAAUUAGGUACGCGAGAAGGGACAUGAGGAUCACCCAUGUACCGC [Eli x4 4.03] (Eterna round: R97, puzzle: Exclusion 4)",11.4,15.9,–
"UGUCAAGCAGGAUAUGCACGUAAUAACAUGAGGAUCACCCAUGUGACCGAUUUAUAUUCUGCAGAAGGGCUUGUUU [LRO-Excl5-19-mod of Erxesoan mod by Eli Fisker] (Eterna round: R97, puzzle: Exclusion 5)",109,26.7,–
"CUAGGGCACAAUUAAACACCCUAACAUGAGGAUCACCCAUGUCAGGAUAUGUAGGCAAAGACCCUACAGAAGGGACAUGUCCUA [Laus] (Eterna round: R96, puzzle: Exclusion NG 3)",21.1,15.2,apparent KD of MS2 coat protein [1]: 9.38 nM
"GGAGAUCGAGGAUAUACAUGAGGAUCACCCAUGUCCGUAGACUGGGAUCGCGGCAGUGGUAGAAGGUGGAAAAU [Eternabot (L2) Solution 67] (Eterna round: R97, puzzle: Exclusion 3)",112,160,–
"AAGUAGACAGUGAGGAUAUUGGUGGAAUGACACAUUAAGAAGGUACAUGAGGAUCACCCAUGUGGGUAAUGUCG [Brourd's EX4 #26] (Eterna round: R97, puzzle: Brourd's mod of Exclusion 4)",64.8,45.8,–
"UUGUUGUGUGUAGGAUAUGCAUAUUAUUAUUAUGCAGAAGGACAUGAGGAUCACCCAUGUAUAUUAUUAUUAUAUAUUAUAUAU [Title] (Eterna round: R96, puzzle: Exclusion NG 1)",–,–,apparent KD of MS2 coat protein [1]: 22.6 nM
"CUAAUUCAAGGAUAUACAUGAGGAUCACCCAUGUGAGGGAGUGACAAGUUGUCGGGAUGUAGAAGGUGACCUAG [Eternabot (L2) Solution 36] (Eterna round: R97, puzzle: Exclusion 3)",417,411,–
"AGUAGAUCUACGCUUGCGUGGAUCUGCAAGGCAGGUGUUACAUGAGGAUCACCCAUGUCCUCAUUUGCUCGUCUUAG [JL turnoff v2 99.07] (puzzle: Sensor v3, turn-off variant 2)",–,–,apparent KD of MS2 coat protein [3]: 358 nM; apparent KD of MS2 coat protein [2]: 1100 nM; apparent KD of MS2 coat protein [4]: 332 nM
"GGAUGCUGAGUAAGGAUAUGGUAGGCUUGCGCAAACCAGAAGGUACAUGAGGAUCACCCAUGUAAGCAUCCAGU [eternacac ex4r4 #4] (Eterna round: R97, puzzle: Brourd's mod of Exclusion 4)",16.3,14.5,–
"GGAGGUAUUUAGGAUAUGAUGUACGACGCAGGUUCAGAAGGGAGUACAUGAGGAUCACCCAUGUGGCCUCAUCC [Eternabot (L2) Solution 47] (Eterna round: R97, puzzle: Exclusion 6)",1200,2010,–
"AAAUGCAAGCAAAGAUCUUACAUGAGGAUCACCCAUGUGCUCGUCUUAUAAAGUACUAUCACGAAAGUGAUAGUACA [Sensor 3, v1 - 28] (puzzle: Sensor v3, turn-off variant 1)",–,–,apparent KD of MS2 coat protein [3]: 25.9 nM; apparent KD of MS2 coat protein [2]: 90.9 nM; apparent KD of MS2 coat protein [4]: 18.1 nM
"GGUUAGCGAGGAUAUACAUGAGGAUCACCCAUGUGAUCCUAAGGCUGAUCAAGCCUAUGUAGAAGGCGCAAAUC [salish99_ex3_r4_008] (Eterna round: R97, puzzle: Exclusion 3)",40.1,227,–
"UUAAAUCAUGUAGGAUAUGCUUUGCGAAGCGAGGCAGAAGGACAUGAGGAUCACCCAUGUGCUAGCGUCCGAGUACGGAUGCAA [Mat - Exclusion NG 1 - Mod of JL - D62] (Eterna round: R96, puzzle: Exclusion NG 1)",214,83.3,apparent KD of MS2 coat protein [1]: 62.6 nM
AAGAACUUAGGAUAUACAUGAGGAUCACCCAUGUAGCUUCACUUGGGCCUGAGCCCGUGUAGAAGGAAGAAAAU [Arge] (puzzle: Exclusion 3),–,–,apparent KD of MS2 coat protein [2]: 66 nM

Sequence,apparent KD of MS2 coat protein (input ligand: FMN 200 uM) [nM],apparent KD of MS2 coat protein (input ligand: none) [nM],further results
"CACAAAGUAGGAUAUAGAAUAAAAGACAUGAGGAUCACCCAUGUGUCGUUCAAGGUGAACCUAGAAGGACUGAAAA [EX5 A.28] (Eterna round: R97, puzzle: Exclusion 5)",45.1,116,–
"AAAAGCGUCACAGGAUAUUCAGGCGACGCCAAAGAAGAAGGGUGAGGCACAAACAUGAGGAUCACCCAUGUGGUCCUCUCCCGA [Vebiquti] (Eterna round: R96, puzzle: Exclusion NG 1)",19.2,15.6,apparent KD of MS2 coat protein [1]: 11 nM
AAGAGGCUAGGAUAUACAUGAGGAUCACCCAUGUGAGGGCACGGCCGGCGCGUGGCCGGUAGAAGGAGUCAAAA [Exc;s3-VIII] (puzzle: Exclusion 3),–,–,apparent KD of MS2 coat protein [2]: 17.5 nM
"UAUUAGCAAGCGAGAUCCCACAUGAGGAUCACCCAUGUGCUCGUCUUAUAAAAGACUGUGACGAAAGUCACGGUCAC [Mat - Sensor, turn-off var - Eli Mod - D21] (Eterna round: R97, puzzle: Sensor, turn-off variant 1)",14.6,15.7,–
"GAAUGCAAGUAAAGAUCUUACAUGAGGAUCACCCAUGUGCUCGUCUUAUAAAGUACUAUCACGAAAGUGAUAGUACA [Mat - Sensor v3 - turn-off var 1 - Eli Mod - D90] (puzzle: Sensor v3, turn-off variant 1)",–,–,apparent KD of MS2 coat protein [3]: 16.3 nM; apparent KD of MS2 coat protein [2]: 84.1 nM; apparent KD of MS2 coat protein [4]: 17.4 nM
GUGCAGGUAGGAUAUCCACCGGCAAACAUGAGGAUCACCCAUGUGACGCUCCCUUGUCUUGGAGAAGGGCCGGCAU [Xetemaaren] (puzzle: Exclusion 5),–,–,apparent KD of MS2 coat protein [2]: 25.2 nM
"CUUGAGCAGGUAGGAUAUACGAUGUGUCGGCGAGUAGAAGGACCUGCGAUCCACUUGAGGAUCACCCAAGUUCGCAGGAGAACA [Mutated MS2 EX1.18] (Eterna round: R96, puzzle: Exclusion NG 1)",103,33.4,apparent KD of MS2 coat protein [1]: 22 nM
"UUCACAUGGACAUAAGAUCACAUGAGGAUCACCCAUGUGAAUAACAAGCUUUUUGCUCGUCUUAUGUCCAAUAAUAU [Stov1/14-A3] (Eterna round: R97, puzzle: Sensor, turn-off variant 1)",13.2,13.2,–
"GACCUGGCGAAGGAUAUCUGGAGGGAGUACAUCAGAGAAGGUCGCACAUGAGGAUCACCCAUGUUUGCAAUAGC [Eternabot (Original) Solution 22] (Eterna round: R97, puzzle: Exclusion 6)",25.7,21.6,–
"UGCGGGCUUUUGAGACCUCACAUGAGGAUCACCCAUGUGCUUGUCUUGUGGGUCGGUAGGUCGUUGGCUGACUGACG [Sensor-V1 #97] (Eterna round: R97, puzzle: Sensor, turn-off variant 1)",15.5,13.4,–
"AGCUGUGGCCGAGGAUAUACAUGAGGAUCACCCAUGUUACAUAAUUAGGCCGGGUAACCGGCUCCGUAGAAGGCGGUCUCAGCA [Eli eng2 - 004] (Eterna round: R96, puzzle: Exclusion NG 2)",14.3,13.7,apparent KD of MS2 coat protein [1]: 11.7 nM
CCAGCGUAUGUGAGGAUAUGCUGGUCCUUGGAUCAGCAGAAGGCACAUGAGGAUCACCCAUGUGGAGACGUUGG [JL bmx4 3.42] (puzzle: Brourd's mod of Exclusion 4),–,–,apparent KD of MS2 coat protein [2]: 18 nM
GGUCUGCGAGGAUAUACAUGAGGAUCACCCAUGUGCGAGAAACUAGUGAGGUCGAUUGGUAGAAGGCGCGGACG [Mat - Exclusion 3 - Mod of JL D83] (puzzle: Exclusion 3),–,–,apparent KD of MS2 coat protein [3]: 74.1 nM; apparent KD of MS2 coat protein [2]: 113 nM; apparent KD of MS2 coat protein [4]: 210 nM
"AAUUAUUAUUGAGGAUAUCGUAUUGAAACAAUACGAGAAGGCGGAAUAAACAUGAGGAUCACCCAUGUGAGCCUGAUGCUUGUG [Ex NG1 #42] (Eterna round: R96, puzzle: Exclusion NG 1)",–,–,apparent KD of MS2 coat protein [1]: 13.4 nM
CUUUUGUGAGGAUAUCAGUAGUAAUAUAAUAGUAUUACUACUGAGAAGGCACAUGAGGAUCACCCAUGUUCCUC [Ex4 344 Omei mod 8] (puzzle: Exclusion 4),–,–,apparent KD of MS2 coat protein [2]: 27.9 nM
"GGGUGACAUGAGGAUCACCCAUGUCAGGAUAUGGGCUCGGGCUCGAAAGGGUCUGGGUCUAGAAGGGACUGCCC [-36.1, -35.1 kcal, 22%A (-3 GC series)] (Eterna round: R97, puzzle: Exclusion 1)",137,67,–
"AGUCCUAGUCAAGGAUAUACACCGAAGAAAUACGUAGAAGGUGACAUGAGGAUCACCCAUGUAGGGACUCUGGAAACAGAGGAA [Arordi] (Eterna round: R96, puzzle: Exclusion NG 1)",161,218,apparent KD of MS2 coat protein [1]: 93.4 nM
